Assay results: paper PMC8184839

What was measured:
[1] = molecular target: cyclin D1 with the CDK6n-CDK4c chimera (UniProt P24385); assay: recruitment to a CDK tethered at the inner nuclear membrane, with FRAP; as a4 but with 6 µM palbociclib overnight and throughout, or 6 µM palbociclib, ribociclib or abemaciclib added acutely about 4-5 min after photobleaching
[2] = molecular target: CDK2-mTurquoise-Δ50 lamin A (UniProt P24941); assay: recruitment to a CDK tethered at the inner nuclear membrane, with FRAP; live RPE-1 cells with mVenus-cyclin and CDK-mTurquoise-Δ50 lamin A, p21 and p27 depleted by siRNA co-knockdown; recovery of mVenus after photobleaching; 37 °C

Sequence of mRuby3-p21 (P38936 whole entry): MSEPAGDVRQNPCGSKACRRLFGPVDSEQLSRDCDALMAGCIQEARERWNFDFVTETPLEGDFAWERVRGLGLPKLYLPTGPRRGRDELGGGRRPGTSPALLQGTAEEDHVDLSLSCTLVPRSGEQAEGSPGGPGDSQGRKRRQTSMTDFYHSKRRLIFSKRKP
Sequence of cyclin D1 with the CDK6n-CDK4c chimera (P24385 whole entry, looked up, stated change not applied): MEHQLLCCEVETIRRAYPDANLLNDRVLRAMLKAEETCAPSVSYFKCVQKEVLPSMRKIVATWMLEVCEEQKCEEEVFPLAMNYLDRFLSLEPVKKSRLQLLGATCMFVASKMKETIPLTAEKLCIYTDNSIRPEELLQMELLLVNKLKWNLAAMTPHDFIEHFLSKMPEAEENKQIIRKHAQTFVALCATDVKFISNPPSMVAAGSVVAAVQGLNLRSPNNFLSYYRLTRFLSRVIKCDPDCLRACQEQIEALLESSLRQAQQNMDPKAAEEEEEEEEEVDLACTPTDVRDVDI
Sequence of mVenus-cyclin E1 (P24864 whole entry): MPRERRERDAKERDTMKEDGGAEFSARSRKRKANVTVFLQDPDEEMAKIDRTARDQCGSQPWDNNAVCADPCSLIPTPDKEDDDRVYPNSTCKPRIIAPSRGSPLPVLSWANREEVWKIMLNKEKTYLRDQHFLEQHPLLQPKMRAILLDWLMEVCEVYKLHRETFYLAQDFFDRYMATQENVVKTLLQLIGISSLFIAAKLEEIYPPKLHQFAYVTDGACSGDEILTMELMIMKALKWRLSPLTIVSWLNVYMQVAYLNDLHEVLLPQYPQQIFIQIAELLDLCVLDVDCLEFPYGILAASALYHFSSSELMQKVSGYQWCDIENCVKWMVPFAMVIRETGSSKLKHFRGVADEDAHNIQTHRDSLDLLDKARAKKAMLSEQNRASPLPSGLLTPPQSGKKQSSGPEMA

Row | fold decrease in fold change of the off-rate with palbociclib against DMSO [1] [fold] | dissociation t-half [2] [min] | Substance
1 | 10 |  | mRuby3-p21 (from UniProt P38936 1-164) (natural protein)
2 |  | 3 | mVenus-cyclin E1 (from UniProt P24864 1-410) (natural protein; other documents disagree on this pair)
